Source: US20220064254A1 (Janssen / Centocor, published 2022)

B1: CAR17 (KL2B413_HL) (other)
chain: EVQLVESGGGLVQPGGSLRLSCAASGFTFSSYWMTWVRQAPGKGLEWVANIKQDGSERYYVDSVKGRFTISRDNAKNSLYLQMNSLRAEDTAVYYCARDQNYDILTGHYGMDVWGQGTTVTVSSGGSEGKSSGSGSESKSTGGSEIVLTQSPSFLSASVGDRVTITCRASQGISSYLSWYQQKPGKAPKLLIYATSTLQSGVPSRFSGSGSGTEFTLTISSLQPEDFATYYCQQLNSYPRTFGQGTKVEIKTSTPAPRPPTPAPTIASQPLSLRPEACRPAAGGAVHTRGLDFACDIYIWAPLAGTCGVLLLSLVITLYCKRGRKKLLYIFKQPFMRPVQTTQEEDGCSCRFPEEEEGGCELRVKFSRSADAPAYKQGQNQLYNELNLGRREEYDVLDKRRGRDPEMGGKPRRKNPQEGLYNELQKDKMAEAYSEIGMKGERRRGKGHDGLYQGLSTATKDTYDALHMQALPPR
notes: also called KL2B413 HL CAR; pBD000091628
B2: CAR20 (KL2B359_LH) (other)
chain: EIVLTQSPATLSLSPGERATLSCRASESVEYFGTSLMHWYQQKPGQPPRLLIYAASNVESGIPARFSGSGSGTDFTLTISSVEPEDFAVYFCQQTRKVPYTFGGGTKVEIKGGSEGKSSGSGSESKSTGGSQVQLQESGPGLVKPSQTLSLTCTVSGNSITSDYAWNWIRQFPGKRLEWIGYISYSGSTTYNPSLKSRVTISRDTSKNQFSLKLSSVTAADTAVYYCATGYYYGSGFWGQGTLVTVSSTSTPAPRPPTPAPTIASQPLSLRPEACRPAAGGAVHTRGLDFACDIYIWAPLAGTCGVLLLSLVITLYCKRGRKKLLYIFKQPFMRPVQTTQEEDGCSCRFPEEEEGGCELRVKFSRSADAPAYKQGQNQLYNELNLGRREEYDVLDKRRGRDPEMGGKPRRKNPQEGLYNELQKDKMAEAYSEIGMKGERRRGKGHDGLYQGLSTATKDTYDALHMQALPPR
notes: also called KL2B359 LH CAR; rehumanized 11B6 LH CAR
B3: CAR19 (KL2B359_HL) (other)
chain: QVQLQESGPGLVKPSQTLSLTCTVSGNSITSDYAWNWIRQFPGKRLEWIGYISYSGSTTYNPSLKSRVTISRDTSKNQFSLKLSSVTAADTAVYYCATGYYYGSGFWGQGTLVTVSSGGSEGKSSGSGSESKSTGGSEIVLTQSPATLSLSPGERATLSCRASESVEYFGTSLMHWYQQKPGQPPRLLIYAASNVESGIPARFSGSGSGTDFTLTISSVEPEDFAVYFCQQTRKVPYTFGGGTKVEIKTSTPAPRPPTPAPTIASQPLSLRPEACRPAAGGAVHTRGLDFACDIYIWAPLAGTCGVLLLSLVITLYCKRGRKKLLYIFKQPFMRPVQTTQEEDGCSCRFPEEEEGGCELRVKFSRSADAPAYKQGQNQLYNELNLGRREEYDVLDKRRGRDPEMGGKPRRKNPQEGLYNELQKDKMAEAYSEIGMKGERRRGKGHDGLYQGLSTATKDTYDALHMQALPPR
notes: also called KL2B359 HL CAR; rehumanized 11B6 HL CAR
B4: KL2B467 (antibody, V domains shown)
VH: QVQLVESGGGVVQPGRSLRLSCAASGFTFSYYGMHWVRQAPGKGLEWVAFISYDGSNKYYADSVKGRFTISRDNSKNTLYLQMNSLRAEDTAVYYCAHLPYSGSYWAFDYWGQGTQVTVSS
VL: QSVLTQPPSVSVAPGQTASITCGGDNIGSKSVHWYQQKPGQAPVLVVYDNSDRPSGIPERFSGSNSGTTATLTISRVEAGDEADYYCQVWDSSSDHPVVFGGGTKVTVLG
notes: also called KL2B467 (Fab); KL2B467 Fab
B5: KL2B30 (antibody, V domains shown)
VH: QVQLQESGPGLVKPSETLSLTCTVSGGSISSYYWSWIRQPPGKGLEWIGYIYYSGSTNYNPSLKSRVTISVDTSKNQFSLKLSSVTAADTAVYYCAGTTIFGVVTPNFYYGMDVWGQGTTVTVSS
VL: DIQMTQSPSFLSASVGDRVTITCRASQGISSYLAWYQQKPGKAPKFLIYAASTLQSGVPSRFSGSGSGTEFTLTISSLQPEDFATYYCQQLNSYPLTFGGGTKVEIKR
notes: also called KL2B30 (Fab); KL2B30 Fab
B6: KL2B53 (antibody, V domains shown)
VH: EVQLVESGGGVVQPGRSLRLSCVASGFTFSSYDIHWVRQAPGKGLEWVAIISYDGSKKDYTDSVKGRFTISRDNSKNTLYLQMDSLRVEDSAVYSCARESGWSHYYYYGMDVWGQGTMVTVSS
VL: DIVMTQSPSSLSASVGDRVTITCRASQDISNYLAWYQQKPGKVPKFLIYAASTLHSGVPSRFSGSGSGTDFTLTISSLQPEDVATYYCQKYNSAPYTFGQGTRLEIKR
notes: also called KL2B53 (Fab); KL2B53 Fab
B7: KL2B494 (antibody, V domains shown)
VH: QVQLVESGGGLVQPGGSLRLSCAASGFTFSHYAMSWVRQAPGKGLEWVSTIGGSGGSTYYADSVKGRFTISRDNSKNTLYLQMNSLRAEDTAVYYCAKPHIVMVTALLYDGMDVWGQGTMVTVSS
VL: SSELTQPPSVSVAPGQTARITCGGNNIGSKSVHWYQQKPGQAPVLVVYDDSDRPSGIPERFSGSNSGNTATLTISRVEAGDEADYYCQVWDSSSDHVVFGGGTKLTVLG
notes: also called KL2B494 (Fab); KL2B494 Fab
B8: KL2B359 (scFv) (scFv, V domains shown)
VH: QVQLQESGPGLVKPSQTLSLTCTVSGNSITSDYAWNWIRQFPGKRLEWIGYISYSGSTTYNPSLKSRVTISRDTSKNQFSLKLSSVTAADTAVYYCATGYYYGSGFWGQGTLVTVSS
VL: EIVLTQSPATLSLSPGERATLSCRASESVEYFGTSLMHWYQQKPGQPPRLLIYAASNVESGIPARFSGSGSGTDFTLTISSVEPEDFAVYFCQQTRKVPYTFGGGTKVEIK
notes: also called Clone KL2B359; rehumanized 11B6
B9: KL2B242 (antibody, human IgG4 S228P, lambda, F234A L235A, V domains shown)
VH: QVQLQESGPGLVKPSETLSLTCTVSGGSISSYYWSWLRQPAGSGLEWIGRLYVSGFTNYNPSLKSRVTLSLDPSRNQLSLKLSSVTAADTAVYYCAGDSGNYWGWFDPWGQGTLVTVSS
VL: SYELTQPPSVSVSPGETASITCSGDQLGENYACWYQQKPGQSPVLVIYQDSKRPSGIPERFSGSNSGNTATLTISGTQALDEADYYCQAWDNSIVVFGGGTKLTVLG
notes: also called KL2B242 (Fab); KL2B242 Fab

Target: T1, biotinylated recombinant hK2 protein (human, UniProt P20151 25-261, biotin label (EZ-Link Sulfo-NHS-LC-Biotin))
T1 construct: In-house biotin-labelled recombinant hK2 used as the flow cytometry reagent; also called biotinylated hK2; Biotin-Hk2 protein
T1 sequence (P20151 25-261): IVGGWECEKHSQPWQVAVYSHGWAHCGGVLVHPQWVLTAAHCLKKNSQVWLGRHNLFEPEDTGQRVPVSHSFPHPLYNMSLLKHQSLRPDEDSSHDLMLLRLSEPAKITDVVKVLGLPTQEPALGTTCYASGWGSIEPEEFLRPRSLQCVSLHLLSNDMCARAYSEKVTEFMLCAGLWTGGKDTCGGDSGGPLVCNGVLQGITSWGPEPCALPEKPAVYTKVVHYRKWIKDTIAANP
Experiment: flow cytometry; primary human T cells lentivirally transduced with the CAR (MOI 3), day 14, stained with biotinylated hK2 (1 ug/ml) then streptavidin-PE; UTD control gate 0.065

Binder	percent of CD3+ T cells in the PE-positive gate (hK2 CAR)
B1	56%
B2	59.9%
B3	45.1%

Target: T1, biotinylated recombinant hK2 protein
Experiment: flow cytometry; CAR-transduced JNL cells stained with biotinylated hK2 and streptavidin-PE

Binder	% of JNL cells stained with biotinylated hK2 (reported as CAR expression)
B1	73.7%
B2	50.8%
B3	46%

Target: hK2 on target cells (VCaP, LNCaP/hK2, LNCaP, C4-2B) (human, UniProt P20151 19-261)
Sequence (P20151 19-261): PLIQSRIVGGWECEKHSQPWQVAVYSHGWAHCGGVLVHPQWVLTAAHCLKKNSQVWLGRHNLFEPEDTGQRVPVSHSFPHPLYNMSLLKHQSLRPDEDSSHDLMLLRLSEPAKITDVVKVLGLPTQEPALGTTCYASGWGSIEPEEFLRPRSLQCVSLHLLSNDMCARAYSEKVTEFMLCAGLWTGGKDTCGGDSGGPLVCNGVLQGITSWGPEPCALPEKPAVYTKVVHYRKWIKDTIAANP
Experiment: cell-based or functional assay

Binder	tumor cell growth inhibition (TGI, %) of hK2 positive VCaP cells, real-time IncuCyte killing assay, 96 hours
B1	~100%
B2	~100%
B3	~100%

Target: T2, soluble human Kallikrein-2 (hK2) (human, UniProt P20151 25-261)
T2 construct: The construct used in SPR, ELISA and MSD screening is not defined; the stated signal peptide (1-18) is left out, and the pro-peptide (19-24) may or may not have been present; also called KLK2; soluble hK2
T2 sequence (P20151 25-261): as the sequence (P20151 25-261) above
Experiment: SPR; antibody captured on anti-Fc sensor chip, soluble hK2 injected; 1:1 Langmuir fit, KD = koff/kon

Binder	Kd
B4	0.078 nM
B5	0.46 nM
B6	0.08 nM
B7	0.053 nM
B8	0.7 to 1 nM
B9	0.04 nM
